From patent publication US10233249B2, “Antibodies and methods for treating estrogen receptor-associated diseases” (BEIJING SHENOGEN PHARMA GROUP LTD., priority 2013, dated 2019)
“Also recorded” adds a separate entry of the source.

Legend:
ER-α36 [1] = target: T1, ER-α36 (Homo sapiens, UniProt P03372); assay: ELISA binding specificity of SNGmB1; design: made in house; host or cells: E. coli BL21 (DE3); settings: plate coated at 1 μg/ml, antibody 0.004-10 μg/ml
T1 sequence (P03372 284-310 isoform P03372-4): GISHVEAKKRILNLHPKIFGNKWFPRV
Procedure: (§1) The binding specificity of SNGmB1 was assessed using ELISA assay. Five different proteins were used to coat the assay plate at 1 μg/ml. After extensive blocking, the SNGmB1 antibody of different concentrations (10, 2, 0.4, 0.08 and 0.016, 0.004 μg/ml) was added to the assay plate and incubated for 1.5 hours, followed by detection of complex formation using HRP (horse radish peroxidase) labeled anti-mouse IgG Fc (Invitrogen). An example of the data was shown below in FIG. 3. […] The key epitope residues in ER-α36 F domain for SNGmB1 binding have been mapped using both PepScan and Alanine Scan (see Example 5).

[2] = system: 4T1-ER-α36 positive cells; assay: 4T1-ER-α36 lung tumor metastasis model; assay type: in vivo, nude mice
Procedure: FACS-sorted 4T1-ER-α36 positive cells (ATCC) (5*10^4) were injected in the nude mice via tail vein. Average 20 mg/kg body SNGmB1 or control IgG (20 mg/kg body weight) was administered by tail vein injection every 3 or 4 days for 18 days, and tamoxifen (1 mg/kg body weight) was intragastric administrated synchronously. […] Representative immunohistochemical images showing ALDH1 in lung metastatic foci with tamoxifen administrated tumor-bearing nude mice respectively after control IgG and SNGmB1 antibody treatment. Hematoxylin was used for counterstaining. Seen from FIG. 26a and FIG. 26b, it is illustrated that ALDH1 is decreased after SNGmB1 injection. scale bars 50 μm.

[3] = target: T2, biotinylated GV27 peptide (ER-α36) (Homo sapiens, UniProt P03372); assay: Competition ELISA; assay type: binding
T2 sequence (P03372 284-310 isoform P03372-4 limits assumed): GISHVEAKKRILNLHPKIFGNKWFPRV
Procedure: The antigen (biotinylated GV27 peptide) was added along with different amount of the competing mouse antibody, the ELISA plates were then allowed to incubate for equilibrium before wash. Streptavidin-HRP (Sigma, S2438, 1:5000) and TMB substrate (Biopanda, China) were added and OD450 was measured on a plate reader. IgG were tested in parallel as control antibody.

[4] = system: MCF7 mammosphere formation; assay: Estradiol stimulated MCF7 mammosphere formation assay; assay type: cell-based, human
Procedure: The impact of antibody on the formation and growth of cells was evaluated by Estradiol stimulated MCF7 mammosphere formation assay.
MCF-7 (ATCC) maintained in DMEM medium containing 10% FBS (Gibco) have been passaged 2-3 times prior to assay and are 60% confluence. MCF-7 cells were washed with warm phenol red-free DMEM twice and then grew in phenol red-free DMEM with 2.5% charcoal stripped FBS (CFBS) for 48 hours. The cells were then trypsinized and passed through 40-μm filters to remove cell clumps, followed by stained with 7-AAD and 800 cells were plated into each well of ultra-low binding 24 well plates (Corning Inc.) in 800 μl mammosphere growth medium consisting of serum free DMEM-F12 (Gibco) supplemented with 5 μg/ml insulin, 0.4% bovine serum albumin (Sigma), B27 (Invitrogen), 20 ng/ml EGF and bFGF (BDBiosciences). For the evaluation of antibody activity, 1 nM estradiol in DMSO was added to each well to induce mammosphere formation after adding of antibodies.
MCF7 cells were grown in the presence of 1 nM estradiol and PBS, human IgG, mouse IgG2b, recombinant ER-α36 ligand binding domain Fc fusion protein, or SNGmB1. DMSO was used as negative control. After 72 hr treatment, the number of mammosphere in culture was counted. […]
The antibody activity was also evaluated in a longer term of 7 days by following methods: MCF7 mammosphere was prepared using same method described above. […]

ER-α36 [5] = target: T3, ER-α36 (Homo sapiens, UniProt P03372, I452L); assay: ELISA binding specificity of SNGmB1; settings: plate coated at 1 μg/ml, antibody 0.004-10 μg/ml
T3 construct: made in house; host or cells: E. coli BL21 (DE3)
T3 sequence (P03372 166-310 isoform P03372-4 I279L): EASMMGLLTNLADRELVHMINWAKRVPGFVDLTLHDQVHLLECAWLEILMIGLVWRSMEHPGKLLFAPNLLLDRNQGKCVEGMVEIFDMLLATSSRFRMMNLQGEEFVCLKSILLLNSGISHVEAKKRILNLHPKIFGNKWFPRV
Procedure: as §1

B1: SNGmB1: mouse monoclonal anti-ER-α36 antibody (mIgG2b), light chain SEQ ID NO: 16, heavy chain SEQ ID NO: 18 (antibody, listed as Mus musculus)
heavy: QAYLQQSGAELVRPGASVKMSCKASGYTFTSHNMHWIKQTPRQGLEWIGAIHPVNGDTAYNQKFKGKATLTVDKSSSTAYLQLSSLTSEESAVYFCAREGYGSVDYWGQGTTLTVSSAKTTPPSVYPLAPGCGDTTGSSVTLGCLVKGYFPESVTVTWNSGSLSSSVHTFPALLQSGLYTMSSSVTVPSSTWPSQTVTCSVAHPASSTTVDKKLEPSGPISTINPCPPCKECHKCPAPNLEGGPSVFIFPPNIKDVLMISLTPKVTCVVVDVSEDDPDVQISWFVNNVEVHTAQTQTHREDYNSTIRVVSTLPIQHQDWMSGKEFKCKVNNKDLPSPIERTISKIKGLVRAPQVYILPPPAEQLSRKDVSLTCLVVGFNPGDISVEWTSNGHTEENYKDTAPVLDSDGSYFIYSKLNMKTSKWEKTDSFSCNVRHEGLKNYYLKKTISRSPGK
light: ETTVTQSPASLSMTIGEKVTIRCITSTDIDDDMNWYRKKPGQPPKLLISEGNTLRPGVPSRFSSSGYGTDFVFTIENMLSEDVADYYCLQSDNLPLTFGAGTKLELKRADAAPTVSIFPPSSEQLTSGGASVVCFLNNFYPKDINVKWKIDGSERQNGVLNSWTDQDSKDSTYSMSSTLTLTKDEYERHNSYTCEATHKTSTSPIVKSFNRNEC
With B1 the “binding to 27-amino acid peptide derived from the F domain of ER-α36 ("peptide")” value (ER-α36 [1]) was “bind to”, the “metastasis of lung tumor” value ([2]; nude mice, 20 mg/kg by tail vein every 3 or 4 days for 18 days, with tamoxifen 1 mg/kg) was “prevents the metastasis of lung tumor” and the “ALDH1 in lung metastatic foci (immunohistochemistry)” value ([2]; tamoxifen administrated tumor-bearing nude mice, versus control IgG) was “decreased”. The “competition with SNGmB1 antibody for binding to GV27 peptide / ER-α36” value [3] was “compete against SNGmB1 antibody”, the “inhibition of estradiol stimulated MCF7 mammosphere formation” value ([4]; 1 nM estradiol, 72 hr treatment, compared with human IgG and mouse IgG2b) was “significantly inhibited; also recorded: can inhibit on MCF7 mammosphere formation and growth” and the “inhibition of MCF7 mammosphere formation, longer term” value ([4]; 7 days, estradiol 100 μM or 3 nM, different antibody concentrations, compared with mIgG) was “better ability in inhibiting mammosphere formation compared with mIgG; also recorded: can inhibit on MCF7 mammosphere formation and growth at different concentrations”. The “binding to Fc-LBD protein” value (ER-α36 [5]) was “bind to”.
